We go through 4 molecules from article PMC10359280, “A maize epimerase modulates cell wall synthesis and glycosylation during stomatal morphogenesis” (Nature Communications, 2023).

The target of series [1] is BZU3 (maize UDP-glucose 4-epimerase), recombinant 6×His-BZU3 (maize). The series can be described thus: crystal structure; BZU3 (~5.0 mg/ml) crystallised by sitting-drop vapor diffusion, 100 mM sodium malonate pH 5.0, 12~16% PEG3350; apo form and crystals soaked with 5 mM UDP-Glc or UDP-GlcNAc.
Series [2] addresses T1, BZU3 (Zea mays, UniProt C0HI30).
T1 construct: gene ZEAMMB73_Zm00001d029151; residues 1-189 NAD domain, 190-355 sugar domain; homo-dimer
T1 sequence (C0HI30 1-355): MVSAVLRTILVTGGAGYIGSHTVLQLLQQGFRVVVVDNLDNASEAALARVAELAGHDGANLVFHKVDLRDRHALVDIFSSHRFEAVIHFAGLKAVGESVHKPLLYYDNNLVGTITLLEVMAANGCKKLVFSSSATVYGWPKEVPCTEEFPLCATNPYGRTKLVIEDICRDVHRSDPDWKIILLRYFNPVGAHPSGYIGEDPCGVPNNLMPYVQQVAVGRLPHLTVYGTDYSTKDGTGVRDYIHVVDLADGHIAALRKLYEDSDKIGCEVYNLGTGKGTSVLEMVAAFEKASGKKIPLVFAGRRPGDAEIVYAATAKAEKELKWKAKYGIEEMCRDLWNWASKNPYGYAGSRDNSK
Nature of the series: X-ray crystal structure. Conditions: no ligand soak for 7XPP; with UDP-Glc 7XPO; with UDP-GlcNAc 7XPQ. Format: binding.

Series [3] addresses T1, BZU3. The series can be described thus: X-ray crystal structure, […] Å, soaked with […] ligand. Format: binding. Conditions: ternary complex with NAD+, crystals at pH 5.0.
Substrate in series [4]: CC(=O)N[C@H]1[C@@H](OP(=O)(O)OP(=O)(O)OC[C@H]2O[C@@H](n3ccc(=O)[nH]c3=O)[C@H](O)[C@@H]2O)O[C@H](CO)[C@H](O)[C@@H]1O
Nature of the series: HPLC of UDP-GlcNAc/UDP-GalNAc, Michaelis-Menten. In kind it is biochemical, Zea mays. Conditions: similar protocol (10 mM Tris-HCl pH 8.0, 30 °C).

Substrate in series [5]: CC(=O)N[C@H]1[C@@H](OP(=O)(O)OP(=O)(O)OC[C@H]2O[C@@H](n3ccc(=O)[nH]c3=O)[C@H](O)[C@@H]2O)O[C@H](CO)[C@@H](O)[C@@H]1O
Nature of the series: HPLC of UDP-GlcNAc/UDP-GalNAc, Michaelis-Menten. In kind it is biochemical, Zea mays. Conditions: similar protocol (10 mM Tris-HCl pH 8.0, 30 °C).

Substrate in series [6]: O=c1ccn([C@@H]2O[C@H](COP(=O)(O)OP(=O)(O)O[C@H]3O[C@H](CO)[C@H](O)[C@H](O)[C@H]3O)[C@@H](O)[C@H]2O)c(=O)[nH]1
The series can be described thus: HPLC of UDP-Glc/UDP-Gal, Michaelis-Menten. Format: biochemical, Zea mays. Conditions: 10 mM Tris-HCl pH 8.0, 30 °C, 25 nM enzyme, 1 min.

Substrate in series [7]: O=c1ccn([C@@H]2O[C@H](CO[P@@](=O)(O)O[P@@](=O)(O)O[C@H]3O[C@H](CO)[C@@H](O)[C@H](O)[C@H]3O)[C@@H](O)[C@H]2O)c(=O)[nH]1
The series can be described thus: HPLC of UDP-Glc/UDP-Gal, Michaelis-Menten. In kind it is biochemical, Zea mays. As to conditions: 10 mM Tris-HCl pH 8.0, 30 °C, 25 nM enzyme, 1 min.

As for “BZU3 (maize UDP-glucose 4-epimerase), recombinant 6×His-BZU3 (enzyme)”, in series [1], the stoichiometry N is 2.
As for `NC(=O)c1ccc[n+]([C@@H]2O[C@H](COP(=O)(O)OP(=O)(O)OC[C@H]3O[C@@H](n4cnc5c(N)ncnc54)[C@H](O)[C@@H]3O)[C@@H](O)[C@H]2O)c1` [NAD^+], the X-ray crystal structure result at BZU3 [2] was “both Y157 and K161 directly interact with the ribose moiety of NAD^+”.
Regarding `CC(=O)N[C@H]1[C@@H](OP(=O)(O)OP(=O)(O)OC[C@H]2O[C@@H](n3ccc(=O)[nH]c3=O)[C@H](O)[C@@H]2O)O[C@H](CO)[C@@H](O)[C@@H]1O` [UDP-GlcNAc], the “X-ray crystal structure, 2.15 Å, soaked with 5 mM ligand” value on BZU3 [3] is recorded as “The structure of BZU3 in complex with NAD^+/UDP-GlcNAc was similar to that of BZU3/NAD^+/UDP-Glc”.

B1: BZU3 (Zea mays) (protein)
chain: MVSAVLRTILVTGGAGYIGSHTVLQLLQQGFRVVVVDNLDNASEAALARVAELAGHDGANLVFHKVDLRDRHALVDIFSSHRFEAVIHFAGLKAVGESVHKPLLYYDNNLVGTITLLEVMAANGCKKLVFSSSATVYGWPKEVPCTEEFPLCATNPYGRTKLVIEDICRDVHRSDPDWKIILLRYFNPVGAHPSGYIGEDPCGVPNNLMPYVQQVAVGRLPHLTVYGTDYSTKDGTGVRDYIHVVDLADGHIAALRKLYEDSDKIGCEVYNLGTGKGTSVLEMVAAFEKASGKKIPLVFAGRRPGDAEIVYAATAKAEKELKWKAKYGIEEMCRDLWNWASKNPYGYAGSRDNSK
notes: residues 1-189 NAD domain, 190-355 sugar domain; homo-dimer
Consider B1, for which the Km in series [4] was 500 µM; in series [5], 400 µM; in series [6], 1450 µM; in series [7] it was 2670 µM.
